Experimental data reported in PMC11338459, “Cryo-EM structures of the human band 3 transporter indicate a transport mechanism involving the coupled movement of chloride and bicarbonate ions” (PLOS Biology, 2024).

Molecular target: the molecule itself
Test: cryo-EM structure; detergent-solubilized raw ghost membrane of human RBC reconstituted into MSP1E3D1 nanodiscs (POPC:POPE:POPG), enriched on Superose 6 in 20 mM Tris-HCl pH 7.5, 100 mM NaCl; Build and Retrieve processing; OF-IF and IF-IF dimers

B1: human band 3 anion transporter (natural protein, UniProt P02730 1-911, looked up)
chain: MEELQDDYEDMMEENLEQEEYEDPDIPESQMEEPAAHDTEATATDYHTTSHPGTHKVYVELQELVMDEKNQELRWMEAARWVQLEENLGENGAWGRPHLSHLTFWSLLELRRVFTKGTVLLDLQETSLAGVANQLLDRFIFEDQIRPQDREELLRALLLKHSHAGELEALGGVKPAVLTRSGDPSQPLLPQHSSLETQLFCEQGDGGTEGHSPSGILEKIPPDSEATLVLVGRADFLEQPVLGFVRLQEAAELEAVELPVPIRFLFVLLGPEAPHIDYTQLGRAAATLMSERVFRIDAYMAQSRGELLHSLEGFLDCSLVLPPTDAPSEQALLSLVPVQRELLRRRYQSSPAKPDSSFYKGLDLNGGPDDPLQQTGQLFGGLVRDIRRRYPYYLSDITDAFSPQVLAAVIFIYFAALSPAITFGGLLGEKTRNQMGVSELLISTAVQGILFALLGAQPLLVVGFSGPLLVFEEAFFSFCETNGLEYIVGRVWIGFWLILLVVLVVAFEGSFLVRFISRYTQEIFSFLISLIFIYETFSKLIKIFQDHPLQKTYNYNVLMVPKPQGPLPNTALLSLVLMAGTFFFAMMLRKFKNSSYFPGKLRRVIGDFGVPISILIMVLVDFFIQDTYTQKLSVPDGFKVSNSSARGWVIHPLGLRSEFPIWMMFASALPALLVFILIFLESQITTLIVSKPERKMVKGSGFHLDLLLVVGMGGVAALFGMPWLSATTVRSVTHANALTVMGKASTPGAAAQIQEVKEQRISGLLVAVLVGLSILMEPILSRIPLAVLFGIFLYMGVTSLSGIQLFDRILLLFKPPKYHPDVPYVKRVKTWRMHLFTGIQIICLAVLWVVKSTPASLALPFVLILTVPLRRVLLPLIFRNVELQCLDADDAKATFDEEEGRDEYDEVAMPV
modifications: N-linked N-acetylglucosamine (NAG) at N642
notes: band 3 anion transporter (AE1), human erythrocyte form of 911 amino acids, encoded by SLC4A1; endogenous protein from ghost membranes; the model of each subunit holds residues 372-888 except 743-751; Native protein from a crude membrane extract, identified from the cryo-EM maps (Build and Retrieve, Model Angelo); PC and PIP2 lipids lie at the subunit interface; also called band 3 transporter; …
stoichiometry N: 2
